{"source": "paper PMC9659335", "about": "“An unexpected role for leucyl aminopeptidase in UV tolerance revealed by a genome-wide fitness assessment in a model cyanobacterium” (Proceedings of the National Academy of Sciences of the …, 2022)", "proteins": {"B1": {"name": "SynPCC7942_1190 (LAP, leucyl aminopeptidase) (Synechococcus elongatus PCC 7942 = FACHB-805) (protein)", "chain": "MTFQAIATHPQDWTGDTLALGLTTAAIGETLSSELQKLDQQWNGVLQELISDSEFKAKLAETTTTRIGGSIRKLILVGLGESPTTEDYRRAAAAVAKQARSFKSQTLAIAFPPSDDPAAIASAIVEGISLALYKDQRFKSEPDTASGPSSIELLGLAGQEAAIARAEQVVAGVELARQLVAAPANVVTPVTMADTAQELAAELGLELEILEADECEKRGMGAFLGVAKASDLPPKFIHLTYRPESTPRRKLAIVGKGLTFDSGGYNIKGAGSGIEMMKTDMGGAAATLGAAKAIGLIKPDVEVHFISAVTENMISGRGMHPGDILTASNGKTIEVNNTDAEGRLTLADALVFADGLGVDAIVDLATLTGACIIALGDDIAGLWSPSDDLAEQLLQAGKAAGEKLWRLPLEEPYLDGLKSPVADYKNTGPRAGGSITAALFLKQFVKHPVWAHLDVAGPVWSDKEKHYNPAGATGYGVRTLVNWVLS", "notes": "full-length gene in pET-28b(+) (pAM5836), Strep-tag (text: N terminus)"}}, "key": {"purified protein [1]": {"substrate": "CC(C)C[C@H](N)C(=O)Nc1ccc([N+](=O)[O-])cc1", "assay": "purified protein", "type": "biochemical, Synechococcus elongatus", "conditions": "pH 7.5, 50 mM Tris-HCl, 0.2 mM MnCl2, 37 °C, 5 µg/mL enzyme"}, "purified protein [2]": {"substrate": "N[C@@H](CS)C(=O)NCC(=O)O", "assay": "purified protein", "type": "biochemical, Synechococcus elongatus", "conditions": "pH 7.5, 50 mM Tris-HCl, 0.2 mM MnCl2, 37 °C, 5 µg/mL enzyme"}}}
{"protein": "B1", "values": [{"measurement": "Km", "setting": "purified protein [1]", "result": 7.44, "unit": "mM"}, {"measurement": "Km", "setting": "purified protein [2]", "result": 1.21, "unit": "mM"}]}
